Here are results for 18 sequences from the DeepSol protein solubility set.

A short description of this data set: soluble on expression in E. coli; label from the status in PepcDB or PDB records.
Take “GPGSMSGGSTALKLQRLLEAEGAVIHSALQVRALPSMGGGMGVVLTERLAAGAVLARFPFRSMITARKARFNLAMAEVALELLEGHVATASTNNGSEGDNGSAGPCAATDVLHVIPFASRVWSEYEFETRVRSRRLRQLIDAKVEELAGALDSTETIVCYVLLMAALYGRLSKHARLRRSGADDGAADEEASVSGTEACACGDEAGPAPTLHYTHENAWMRTWIHALPAQYDNLLELVPVPEDSPPCLAQHGTEPECAARAPSVLSGNATTASPPPPLLARVSAYTKSSGWLRSYISLCRFQASVAREQQAIQRRHAKCCAALRCLQRLPRGVEVTEELADAGHGAAAPQNRVFASCGSSPSSSQQDCGRHDHGAACTLGQFLWAFNTLMSRGFYFPEATWALMPFVDYFNYALESNGTMYPQEDDPEDPGCFTNLLLAKTSRNGIGSVAPLMAAAAPRKQQWRTALRTARVGKAAVPLANYQTYEFQLVRPTCPPSEQVMLHYGAYSDVELLMWYGFTLRPSLLPAPQLAAAPEGRKKGTIPVLPPCLSDADGSLLHAAHGLRLALSQLASATTRVAYYRRWVAPLHRCDGAAASDADAAAACKTWLAALHCAYRLPLSPIANAEGKYPEATPGATWLDELLSAFAQTPAVAAPCTDAASEDEAAYRIDAWMRRWGSERWPGFAASAFPNITKGCAFGVLGLSPVLRAAVHSSFWTPTPERSSLSAGERLLVVRGLAWAELYVNMTAAAHADGWTTSSVPASAAAAECARTMSVDQWTLLRFLALESTDAALEEYVEYVSESEG”: the “soluble on expression in E. coli” value is on record as “not soluble”.

Regarding “MVSRLSTGILDFDKLIQGGIPQGFFIALTGEPGTGKTIFSLHFIAKGLRDGDPCIYVTTEESRDSIIRQAKQFNWDFEEYIEKKLIIIDALMKEKEDQWSLVNLTPEELVNKVIEAKQKLGYGKARLVIDSVSALFLDKPAMARKISYYLKRVLNKWNFTIYATSQYAITTSQAFGFGVEHVADGIIRFRRMIRNGELHRYILIEKMRQTDHDKHVWEIDIVNGKGIVLKGRLEE”, the “soluble on expression in E. coli” value is on record as “soluble”.

In the case of “VRGLLRVVGVRIEPGDHMLAIRDEIAGAIALGHSQGAVEKEDRDRLLGALDLSERTVEEIMRHRSQIEMIDADKPSAEVIAQVLASPHTRIPLYRGDHENILGIIHAKDLLREVSRLMRTGSTGALDELDILAVAMKPYFVPETTPLDEQMRQFLKRRTHFALVVDEYGALKGLITLEDIIEEIVGEINDEFDIAQEMTLKRADTGDYLVDGAMTI”, the “soluble on expression in E. coli” value is recorded as “not soluble”.

On to “MAHHHHHHMEVEWDSETVTKFYNYLCGTISYQNCVELEKDLRIETGTEEKLNKHSCSSCSDHHGDVNISCFKFKKDDDDVLGEILDSEKDQENVKASLAEITQKAFTIYSNVIAKAASKGDNKVTLETDHFLRSDILRLVFSKYITTKAKERITEISSKSTKNIVTLANPLNMNEHDLNKIETDTIANLMHDYVGLQKNFLGRDYTKLIFDELVFIEYNNQFNSFGREYKNVRTDFYCWTYITSLDRQKQRGLYKLLKELSLLPYELNKKANLSLQIGTLFQFLYFSPNKSYLKKHCQGGYGKMDNGKKVTCIYVPFVHSNDDVEIKLYRSEYNGVNEESEESEGRGKTEPNVRDATTVPSNQTDDGAPFRVIKPESDSLIFLQTRNVSYEISKTKNKFFTVNFSISGPVSTERRL”, for which the “soluble on expression in E. coli” value was “not soluble”.

As for “MRSAIAAPILFLLVSFFVQECESVGFAPELYCGLENCYDVLEVNREEFDKQKLAKAYRALARKHHPDRVKNKEEKLLAEERFRVIATAYETLKDDEAKTNYDYYLDHPDQRFYNYYQYYRLRAAPKVDL”, the “soluble on expression in E. coli” value was “not soluble”.

For the sequence “MNLMDLANEHDALILAHNYQTPEIQDVAHHVGDSLALAKIAAESQASTIVLCGVYFMAETTKILSPEKRVIIPEPEAGCSLASSITAEQLRAWKAEHPEAAVVAYVNTTAEVKALSDVCCTSSNAVRVVESIDPDRDILFLPDQFLGAHVQRETGRKNIHVWLGECHVHADISPTHITEMAHNNPQADLYVHPECGCTTSALWLASQGDIPQARILSTGGMMEAARKTAASTVLVATEIGMLHQLRKANTATDFIPVNPYAACPFMQMITMEKLEKALVEGHHEVHVDPVLAQRARGAVEAMITL”, the “soluble on expression in E. coli” value is given as “not soluble”.

Regarding “MWRELWRVVEKSDIIVQIVDARNPLLFRSKDLDDYVKEVDPAKQILLLVNKADLLKPEQQASWREYFEKENIKVIFWSAIDEVLDPIDEDAVETSNPSTSTHMFVTNKDELIAKFKELGHVSDEPSAKPVMVGMVGYPNVGKSSTINKLAGGKKVSVSATPGKTRHFQTIHIDSQLCLCDCPGLVMPSFSFGRSEMFLNGILPVDQMRDHFGPTSLLLSRVPVHVIEATYSIMLPEMQSPSAINLLNSLAFMRGFMASSGIPDCSRAARLMFKDVVSGKLIWAAAPPGVEQEEFDRISYPDKKTRDIGRVQMEKLAKLQLLEGDELKGSQFDSQHFVGSIGVAHVRDSKALPQTLGTVIPTAPTENNGKKHYKGKKDKLRRIYNE”, the “soluble on expression in E. coli” value is recorded as “not soluble”.

With “MIHSMTAFSRIQKQFDVGDFCWEIRSVNHRYLDVSFRLPESFRFLEAELRTLLRDKIHRGKLECHLKYKDTSCDNRSMLINIGTINALLDLSSKLSASHHLANDMTVSQVLSWPGVVEANLLDMEELSQIALELFQKSIDKLCEVRAGEGRSLKAYVEDRLQALRQEVMKSKSIVVSMSAKTKDKLLTRLHELQMDVPEARVEQEIALLLAKLDVSEELDRLETHIAEVSRTLNAEKVTGRRLDFLMQELNREANTLSSKSDSAELTLCAVEMKVLIEQMREQIQNFE”, the “soluble on expression in E. coli” value is on record as “not soluble”.

Turning to “MFLEECKTHFNTDCLYELLGVKKDCDEKALKKGYYRQSMRWHPDKSNLVEEDMQTYTTKFQLLNKAYQILSDEEKRKIYDETGSVDDEAGELNEDALKAWRMIFKKVTKEDIDSFMKTYQGSREQKDELVVHYEKFNGDIAKIREYAIGFDGVEELKEALDKLIDDGEIEKTKKYETSTSDKKMKAYKRKAEKEAIEVENMTQNNSDLVALIQGRQKERGTSFLDSLAAKYAPSSSKKAKRQ”, the “soluble on expression in E. coli” value is “not soluble”.

“MSLVTVSDVKQYHFCKAIPWINYVMGYREPSTFSMEEGKKISYEEVVKSLNLTTPVKYEVCLSYNGLSGCIDILAGDRKYTVVEVKAFKRGNFSHFRYQLLAYAYLVRKRLGIVERAILVMEGKKVLEIEPTEEHYRYIENVVKKIEEIVNSEKLPAVNVEKCDFCQYRRICPVSVWSEGHHHHHH”: the “soluble on expression in E. coli” value was “soluble”.

In the case of “MDLSTIKVFEQKLELHREMPMKVVKKELHFSTKGEIDLVDITREVELFVAESGISKGQVLIFVPGATGAVVAIEHEEGLLEDFKKILKEIVPKEKPYLHNRFDDNAHSHIRATLLGPSLVFPIVDGELVRGTWQQIFFVELDTRPRKRRILLQAIGE”, the “soluble on expression in E. coli” value is given as “soluble”.

In the case of “MGSDKIHHHHHHMNRLRTSFQQTTGQISGHGKRNVGVLKTAFAAVADEMASDQYGTGAIIEPFEQKFADVLGMDDAVFFPSGTMAQQVALRIWSDETDNRTVAYHPLCHLEIHEQDGLKELHPIETILVGAADRLMTLDEIKALPDIACLLLELPQREIGGVAPAFSELETISRYCRERGIRLHLDGARLFEMLPYYEKTAAEIAGLFDSIYISFYKGLGGIAGAILAGPAAFCQTARIWKRRYGGDLISLYPYIVSADYYYELRKDRMGQYYEQAKQLAEQFNALPGVHTTPEVPVSNMFHLHFDGQAADISPKLEQVQEETGLGFVGYLVDKDGYCSTEISVGDAYGELDQQTRDAGFARLRQAFS”, the “soluble on expression in E. coli” value was “not soluble”.

Regarding MDIYVCTVCGYEYDPAFEDLPDDWACPVCGASKDAFEKQ, the “soluble on expression in E. coli” value was “soluble”.

For “MEYRITGKGVEISEAIKNYLEKRLDKIDRVIYDDDLVSFNVRIEKDGKNQYVVKFNMNLKGNIINVEERHPDIYTAIDFASDALEKQVKRLKERLKNHPHRSSALVETPLEEPGEFSPSDKVSSVKRVSLLNLDLDEAVMQMDELNHRFLVFRNVNTGEINLLYRDENGDIHLIEMAE”, the “soluble on expression in E. coli” value was “not soluble”.

Take “KTVPSGQAGQGFAEKGPWKKLGLTYTQKTEIQRIHHNTRAEMDKVLTTEQKEQLKAAMQERQTQRSQGEGRGKWKKDIFTSLNLTDAQKSQIQEIRELSRKQMEAVLTPAQRQQLQQMEQNWKSRRQQGNSN”: the “soluble on expression in E. coli” value was “not soluble”.

Turning to “MGSDKIHHHHHHLNVYHASLEEAQADPRLKGLQGASPFERLDWLALLANECLDPARARLSVVTSGECMAALPWIEREGRIDALANWYSFFVSPLGDSALLSRIVEALPHGRAAFAPLPEEDARLLARAFRNAGWCTLAAPCDVNHVLPVEGRSFAQYWAERPGALRETVRRKSRKGEVSLRILTEFSPEDWEAYETIYRLSWKPGEGSPAFLRKWAEADGEAGRLRLGIAEIDGAAVAAQFWTVEGGTAYIHKLAHDERFRKSSPGTLLTAAMFEHVIDRDRVDLIDFGTGDDPYKRDWMDDVRSRWSVQAWRPGAVRHWPSLALALARTLAGQIMRPLVSRNGDG”, the “soluble on expression in E. coli” value is recorded as “not soluble”.

On to “MLVRRLFQPSTLHWAWRTTALNHPLGRHQGGLRWTHSGGRSYRAVIFDTGGVLVPSPGTVAVGWEVQNHVPSGTIVKAFIRGGDSGPWIRFIKGEITTEHFLEEFGRLCSEIAKTSVPVSSYFSLLTSEQVTKQFPVMTQAISQIRAKGLQTAVLTNNFHLSSGESFLPLDRKQFDVVVESCLEGICKPDPRIFQLCLQRLSLQPSEAIFLDDLGSNLKVAASLGIHTIKVDRPETAVKELEALLGFPLHLGVPNTRPVRKTMAIPQDALEKYLKGLLGTHSTGPMELLQFDHGQSNPTYYIRLADRQLVLRKKPSGTLLPSAHAIEREFRIMKALANAGVPVPTVLDLCEDSSIIGTPFYLMEYCPGIIYKDPSLPGLEPSRREAIYTAMNQVLCRIHSVDLQATSLDSFGKQGDYIPRQVQTWTKQYRAAETSSIPAMERLIQWLPLHLPRQQRTTLVHGDFRLDNLIFHPEKAEVLAVLDWELSTLGDPFADVAYSCLAYYLPSSFPILRGFRDQDVTKLGIPTVEEYFRMYCLNMGIPPIDNWNFYMAFSFFRVAAILQGVYKRSLTGQASSATAQQSGKLTESMAELAWDFATKEGFRVFKEMPATKTLSRSYHAWAGPRSPRTPKGVRGHSTVAAASPSHEAKGGLVISPEGLSPAVRKLYEQLVQFIEQKVYPLEPELQRHQASADRWSPSPLIEDLKEKAKAEGLWNLFLPLETDPEKKYGAGLTNVEYAHLCEVMGMSLYASEIFNCSAPDTGNMEILVRYGTEEQKARWLVPLLEGRIRSCFAMTEPQVASSDASNIEASIKEEDGCYVINGHKWWTSGILDPRCKLCVFMGKTDPQAPRHQQQSMLLVPMDSPGITVIRPLSVFGLEDPPGGHGEVRFKDVRVPKENILLGPGRGFEIAQGRLGPGRIHHCMRLIGYSERALALMKTRVMSRTAFGKPLVEQGTILADIARSRVEIEQARLLVLKAAHLMDVAGNKTAALDIAMIKMVVPSMAYHVIDRAIQAFGAAGLSSDYPLAQFFGWARALRFADGPDEVHQLTVAKMELKNQSRMQEPAVPRV”, for which the “soluble on expression in E. coli” value was “soluble”.

Consider “MSSQDVLIHSDDPCHPANLICTLCKQFFHNNWCTGTGGGISIKDPNTNYYYLAPSGVQKEKMIPEDLFVMDAQTLEYLRSPKLYKPSACTPLFLACYQKKNAGAIIHTHSQNAVICSLLFGDEFRIANIEQIKAIPSGKVDPVTKKPMALSFFDTLKIPIIENMAHEDELIDDLHKTFKDYPDTCAVIVRRHGIFVWGPTIDKAKIFNEAIDYLMELAIKMYQMGIPPDCGIGEEKKHLKMASP”, for which the “soluble on expression in E. coli” value is reported as “soluble”.
